Values quoted from earlier work as cited in PMC9313406.

Biological target: ACE2 (dimeric) (Homo sapiens) (UniProt Q9BYF1)
Test: SPR

ACE2 (dimeric) (Homo sapiens), sequence (Q9BYF1 18-740): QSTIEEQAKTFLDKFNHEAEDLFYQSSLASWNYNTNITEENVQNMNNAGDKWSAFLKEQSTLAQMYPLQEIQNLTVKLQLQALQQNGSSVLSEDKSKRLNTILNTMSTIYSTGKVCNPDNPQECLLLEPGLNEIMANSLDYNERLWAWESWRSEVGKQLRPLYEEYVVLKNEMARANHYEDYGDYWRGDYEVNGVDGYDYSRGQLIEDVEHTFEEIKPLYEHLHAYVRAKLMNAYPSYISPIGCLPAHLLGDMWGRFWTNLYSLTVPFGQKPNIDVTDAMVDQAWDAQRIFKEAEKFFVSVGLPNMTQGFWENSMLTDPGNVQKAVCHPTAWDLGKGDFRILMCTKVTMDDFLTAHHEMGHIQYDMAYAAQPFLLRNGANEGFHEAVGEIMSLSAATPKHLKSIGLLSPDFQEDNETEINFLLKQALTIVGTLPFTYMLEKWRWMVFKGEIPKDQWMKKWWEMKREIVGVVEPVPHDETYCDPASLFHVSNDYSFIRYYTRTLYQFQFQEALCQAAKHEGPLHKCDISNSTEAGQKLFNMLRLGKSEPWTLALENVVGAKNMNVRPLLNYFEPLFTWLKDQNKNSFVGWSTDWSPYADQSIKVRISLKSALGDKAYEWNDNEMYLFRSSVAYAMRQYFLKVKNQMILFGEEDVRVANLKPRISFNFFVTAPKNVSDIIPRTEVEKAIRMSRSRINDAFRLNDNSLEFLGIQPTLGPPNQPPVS

Substance: Spike protein (from UniProt P0DTC2)
- Kd: 0.283 nM
